Experimental data from patent publication US20200207835A1, “SRCP1-BASED THERAPY FOR DISEASES ASSOCIATED WITH PROTEIN AGGREGATION” (THE MEDICAL COLLEGE OF WISCONSIN, INC., priority 2017, published 2020).

Key:
HD iPSC-derived neurons = test: Neurite length in HD iPSC-derived neurons; format: cell-based, human; conditions: HD iPSC-derived neurons with 60 or 180 glutamines, overexpression of SRCP1
Method: (§1) iPSC transfections were performed with mixed cultures of astrocytes and neurons adhered to matrigel-coated coverslips, seeded at 2.6×10^4 cells/cm^2. iPSC transfections were performed using Lipofectamine 2000 according to the manufacturer's instructions and recommended DNA concentrations for a 24-well transfection.
(§2) Plated iPSC derived cultures of astrocytes and neurons were fixed with 4% paraformaldehyde in PBS for 20 minutes at room temperature, 3-5 days after transfection. Cells were permeabilized and blocked prior to antibody labeling. Nuclei were labeled with Hoechst nuclear dye. Primary antibodies used were rabbit anti-Tuj1 (Covance MRB-435P), chicken anti-Tuj1(Gene Tex, GTX85469) and mouse anti-GFAP (Cell Signaling, 3670). Images were taken using an upright Nikon fluorescent microscope with a 40× objective. The number of neural cells with GFP positive puncta was quantified using NIS Elements object quantification tool (Nikon) and neurite length was measured using NIS Elements length measurement tool (Nikon).
For control iPSCs, four biological replicates from two independent differentiations were analyzed and for HD iPSCs, four biological replicates were analyzed from four separate differentiations using two independent HD lines.

^GFPHtt^ex1Q74 [1] = target: ^GFPHtt^ex1Q74 (Homo sapiens, UniProt P42858); test: GFPHttex1Q74 puncta in iPSC-derived neurons; format: cell-based; design: encoding pEGFP huntingtin exon-1 with 23 (^GFPHtt^ex1Q23) or 74 (^GFPHtt^ex1Q74) glutamines; host or cells: human iPSC-derived neurons (mixed cultures with astrocytes); conditions: co-expression
Method: as §1, §2

[2] = tested on: mutant (G85R or A4V) SOD1; test: Aggregated mutant SOD1 in HEK293 cells (ultracentrifugation, western blot); format: cell-based, human; conditions: HEK293, 48 hours, overexpression of SRCP1
Method: HEK293 cells were transfected with either wild-type or mutant (G85R or A4V) SOD1 either in the presence or absence of SRCP1 for 48 hours. Cells were then collected and lysed prior to ultracentrifugation to isolate aggregated proteins. After ultracentrifugation cell protein in the pellet was suspended in Laemmli buffer and analyzed by SDS-PAGE and western blot

^GFPHtt^ex1Q74 [3] = test: GFPHttex1Q74 aggregation in transfected HEK293 cells (fluorescent/confocal microscopy, western blot, filter trap assay); format: cell-based, human
Method: (§3) Transfections were performed with Lipofectamine 2000 (Invitrogen by ThermoFisher Scientific) and adapted from the manufacturer's instructions. Briefly, cells were plated on either 12-well or 6-well plates and transfected at 50-70% confluency. For 12-well transfections, 0.833 μg of DNA per well was mixed with 50 μl of OptiMEM (Gibco by Life Technologies) media and incubated for 5 minutes at room temperature. Lipofectamine 2000 in a 2:1, μl of lipofectamine: μg DNA ratio was mixed with 50 μl of OptiMEM media and incubated for 5 minutes at room temperature. DNA and Lipofectamine were mixed and incubated for 15 minutes at room temperature. Fresh media was added to cells prior to the addition of DNA and lipofectamine. For 6-well transfections, the same protocol is followed except that 1.25 μg of DNA per well and 100 μl of OptiMEM for dilution was used. Media was changed 24 hours post-transfection and cells were harvested 48 hours post-transfection. Prior to harvesting, HEK293 cells were washed three times with ice-cold 1×PBS. Samples were then lysed with either 150 μl of ice-cold NETN (with protease inhibitor) or 1× Laemmli Buffer and sonicated twice for 5-8 seconds.
(§4) For proteasome inhibition, 30 hours post-transfection cells would be replenished with DMEM containing either DMSO or 10 μM MG132 (Sigma-Aldrich) for 18 hours. Prior to harvesting, HEK293 cells were washed three times with ice-cold 1×PBS and imaged by fluorescent microscopy with a 20× objective using the Evos FL Auto Imaging System. Cells were then lysed with either 150 μl of ice-cold NETN (with protease inhibitor) or 1× Laemmli Buffer and sonicated twice for 5-8 seconds.
as §4, with “autophagy” for “proteasome”, “24” for “30”, “and treated with” for “containing”, “5 mM 3-Methyladenine” for “10 μM MG132”, “an additional 24” for “18”
For HEK293s′, slides were prepared by placing coverslips in 6-well plates and incubating with poly-L-lysine hydrobromide (Sigma-Aldrich) for an hour at room temperature. Coverslips were rinsed with 1×PBS three times prior to plating HEK293 cells. HEK293 cells were then transfected and fixed by incubation in 4% paraformaldehyde for 20 minutes at room temperature. Coverslips were mounted with ProLong Gold Antifade reagent and imaged with a 20× objective using the Evos FL Auto Imaging System or with a 40× objective using the Leica TCS SP5 Confocal Microscope System. For confocal, Z-stack images were obtained at […] intervals at 1024×1024 pixel resolution and merged using Fiji.
Following sonication, lysates were subjected to BCA protein assay (ThermoFisher Scientific) and prepared for loading by the addition of 4× laemmli buffer and boiling for four minutes. Samples then loaded on SDS-polyacrylamide gels, ran at 175 V, and transferred onto an Immuno-blot PVDF membrane (Biorad) overnight at 30 V. Membranes were blocked in 5% milk in TBS with 0.1% Tween (TBST) and incubated in primary antibody overnight at 4° C. Following primary, membranes were washed for 10 minutes at room temperature three times with TBST and incubated in secondary for an hour at room temperature. Membranes were then washed for 10 minutes at room temperature three times with TBST and then incubated in buffer for enhanced chemiluminescence (50 mM Na2HPO4; 50 mM Na2CO3; 10 mM NaBO3.4H2O; 250 mM luminol; 90 mM coumaric acid).
For HEK293 lysates, BCA protein assay was used to determine protein concentration. […]

^GFPHtt^ex1Q23 = target: T1, ^GFPHtt^ex1Q23 (Homo sapiens, UniProt P42858, DUP37-38); test: GFPHttex1Q23 levels in transfected HEK293 cells (western blot); format: cell-based; conditions: HEK293, 48 hours post-transfection
T1 construct: encoding pEGFP huntingtin exon-1 with 23 (^GFPHtt^ex1Q23) or 74 (^GFPHtt^ex1Q74) glutamines; host or cells: HEK293
Method: as §3
Following sonication, lysates were subjected to BCA protein assay (ThermoFisher Scientific) and prepared for loading by the addition of 4× laemmli buffer and boiling for four minutes. […]

[4] = HEK293, co-expression, fluorescent microscopy

Sequence of ^GFPHtt^ex1Q74 (P42858 with tags, fused parts or gaps limits assumed): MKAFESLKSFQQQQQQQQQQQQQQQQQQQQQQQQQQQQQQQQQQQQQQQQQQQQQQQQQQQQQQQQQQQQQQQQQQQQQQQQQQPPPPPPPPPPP
T1 sequence (P42858 with tags, fused parts or gaps DUP37-38): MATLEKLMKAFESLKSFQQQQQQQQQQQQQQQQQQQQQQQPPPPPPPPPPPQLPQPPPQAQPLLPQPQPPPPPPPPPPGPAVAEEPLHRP
Sequence of ^GFPHtt^ex1Q74 (Homo sapiens, UniProt P42858) (P42858 with tags, fused parts or gaps): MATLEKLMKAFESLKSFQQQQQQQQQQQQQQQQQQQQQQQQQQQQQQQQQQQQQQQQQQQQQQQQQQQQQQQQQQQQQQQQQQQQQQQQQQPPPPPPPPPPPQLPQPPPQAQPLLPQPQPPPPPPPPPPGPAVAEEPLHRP

B1: SRCP1: Dictyostelium discoideum serine-rich chaperone protein 1 (SEQ ID NO:2), expressed in cells as RFP-tagged construct (protein)
chain: MTILSTFTSFSNPPKLNKSSFSSSTGSSLSMGSNSFAWGGGWGGFGGPKGGSFNVDIAGNLIWGVYGFIRGGVGLVKWRGLQKGCKQP
modifications: RFP tag; Dictyostelium discoideum AX4
- neurite length (HD iPSC-derived neurons): significantly increased neurite length
- GFPHttex1Q74 puncta (^GFPHtt^ex1Q74 [1]): dramatic decrease in ^GFPHtt^ex1Q74 puncta
- levels of aggregated mutant SOD1 [2]: reduces the levels of aggregated mutant SOD1
- polyQ aggregation under proteasome inhibition (^GFPHtt^ex1Q74 [3]; HEK293, SRCP1 in the presence of proteasome inhibition): prevented polyQ aggregation
- levels of monomeric, soluble GFPHttex1Q74 (^GFPHtt^ex1Q74 [3]; HEK293, co-expression): no effect on the levels of monomeric, soluble
- soluble GFPHttex1Q74 levels under autophagy inhibition (^GFPHtt^ex1Q74 [3]; HEK293, co-expression of RFPSRCP1 plus 5 mM 3-MA): did not lead to a significant increase in soluble
- soluble GFPHttex1Q74 under proteasome inhibition (^GFPHtt^ex1Q74 [3]; HEK293, co-expression of RFPSRCP1 plus proteasome inhibitor, compared to proteasome inhibition alone): even further increase in the amount of soluble
- number of GFPHttex1Q74 puncta (^GFPHtt^ex1Q74 [3]; [4]): significantly decreases the number of puncta
- size of GFPHttex1Q74 puncta (^GFPHtt^ex1Q74 [3]; [4]): significantly decreases ^GFPHtt^ex1Q74 puncta size
- amount of GFPHttex1Q74 aggregates (^GFPHtt^ex1Q74 [3]; HEK293, co-expression, SDS-PAGE, filter trap assay, confocal microscopy): greatly reduced the amount of ^GFPHtt^ex1Q74 aggregates
- levels of GFPHttex1Q23 (^GFPHtt^ex1Q23): did not alter the levels of
